Kd, koff and kon data for 16 molecules are collected here from patent EP4671273A1 (Anaveon AG, dated 2025).

For test [1], the target named is T1, cynomolgus PD-1 (#PD1-C52H5, AcroBiosystems) (cynomolgus monkey, UniProt B0LAJ3 25-170).
T1 construct: bought; also called cynomolgus monkey PD-1; not shown: the vendor's tag on the recombinant protein (AcroBiosystems #PD1-C52H5)
In words: SPR, PD-1 on captured IgG1. Background: Surface plasmon resonance follows binding to a sensor surface in real time, without labels.

Test [2] has as its target T2, human PD-1 (#PD1-H82E4, AcroBiosystems) (human, UniProt Q15116 25-167).
T2 construct: bought
In words: SPR, PD-1 on captured IgG1.

The target in test [3] is T3, rhIL-21-His (AB235875-1001, Abcam) (human, UniProt Q9HBE4 30-162).
T3 construct: bought; not shown: His tag, length and position not described
In words: SPR, Fab on captured rhIL-21-His.

T1 sequence (B0LAJ3 entry or part of it limits assumed, form in doubt): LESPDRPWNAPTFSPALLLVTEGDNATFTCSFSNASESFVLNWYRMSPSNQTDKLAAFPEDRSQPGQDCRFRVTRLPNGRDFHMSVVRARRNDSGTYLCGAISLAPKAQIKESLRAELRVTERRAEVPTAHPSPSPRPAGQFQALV
T2 sequence (Q15116 25-167 limits assumed): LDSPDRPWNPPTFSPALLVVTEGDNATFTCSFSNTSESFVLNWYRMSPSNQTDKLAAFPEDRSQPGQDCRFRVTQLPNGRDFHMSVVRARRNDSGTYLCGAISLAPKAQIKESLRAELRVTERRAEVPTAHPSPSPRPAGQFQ
T3 sequence (Q9HBE4 30-162 limits assumed): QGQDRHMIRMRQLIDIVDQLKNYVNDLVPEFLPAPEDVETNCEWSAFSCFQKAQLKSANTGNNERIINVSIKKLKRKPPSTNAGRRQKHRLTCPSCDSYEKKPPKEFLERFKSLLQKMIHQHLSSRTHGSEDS

B1: NRT742 (antibody, human IgG1, V domains shown)
VH: VQLVQSGAEVKKPGASVKVSCKASGYTFTNFYIHWVRQAPGQGLEWMGSIYPNYGITAYNQKFKDRVTMTVDTSTSTAYMELRSLRSDDTAVYYCARGYSYAMDYWGQGTTVTVSS
VL: DIQMTQSPSSVSASVGDRVTITCSASQGISGDLNWYQQKPGKAPKLLIYHASQLHSDVPSRFSGSGSGTDFTLTISSLQPEDFATYYCQGYSKDLLTFGGGTKLEIK
notes: human IgG1
Consider B1, for which, in test [1], binding was put at a Kd of 0.541 nM; the koff (in general, a measure of how fast the partners let go of each other) stood at 0.000297 s⁻¹; the association rate constant (kon) (usually the rate constant with which the complex forms) was found to be 549000 M⁻¹ s⁻¹. Besides, in test [2], the equilibrium dissociation constant (Kd) (in general, the concentration at which binding is half-saturated) is 0.955 nM; the koff stood at 0.000406 s⁻¹; the kon worked out at 426000 M⁻¹ s⁻¹.

B2: OKM590 (antibody, human IgG1, V domains shown)
VH: VQLVQSGAEVKKPGASVKVSCKASGYTFTNFYIHWVRQAPGQGLEWMGSIYPNYGITAYNQKFKDRVTMTVDTSTSTAYMELRSLRSDDTAVYYCARGYSYAMDVWGQGTTVTVSS
VL: DIQMTQSPSSVSASVGDRVTITCSASQGISGDLNWYQQKPGKAPKLLIYHTSQLHSDVPSRFSGSGSGTDFTLTISSLQPEDFATYYCQGYSKDLLTFGGGTKLEIK
notes: human IgG1
As for B2, in test [1], the Kd amounted to 0.627 nM, the off-rate (koff) was 0.000345 s⁻¹ and the kon came out at 551000 M⁻¹ s⁻¹. In test [2], this molecule had an equilibrium dissociation constant (Kd) of 0.955 nM, a koff of 0.00039 s⁻¹ and a kon of 409000 M⁻¹ s⁻¹.

B3: ZTD928 (antibody, human IgG1, V domains shown)
VH: VQLVQSGAEVKKPGASVKVSCKASGYTFTNFYIHWVRQAPGQGLEWMGSIYPNYGITAYNQKFKDRVTMTVDTSTSTAYMELRSLRSDDTAVYYCARGYSYAMDYWGQGTTVTVSS
VL: DIQMTQSPSSVSASVGDRVTITCSASQGISGDLNWYQQKPGKAPKLLIYHTSQLHSDVPSRFSGSGSGTDFTLTISSLQPEDFATYYCQGYSKDTLTFGGGTKLEIK
notes: human IgG1
For B3, in test [1], the Kd is 0.502 nM, the off-rate constant (koff) is 0.000243 s⁻¹ and the on-rate constant (kon) came out at 483000 M⁻¹ s⁻¹. In test [2], this molecule came in with a Kd of 0.801 nM, a koff of 0.00028 s⁻¹ and an on-rate constant (kon) of 349000 M⁻¹ s⁻¹.

B4: QGA408 (antibody, human IgG1, V domains shown)
VH: VQLVQSGAEVKKPGASVKVSCKASGYTFTNFYIHWVRQAPGQGLEWMGSIYPNYGITAFNQKFKDRVTMTVDTSTSTAYMELRSLRSDDTAVYYCARGYSYAMDYWGQGTTVTVSS
VL: DIQMTQSPSSVSASVGDRVTITCSASQGISGDLNWYQQKPGKAPKLLIYHTSQLHSDVPSRFSGSGSGTDFTLTISSLQPEDFATYYCQGYSKDLLTFGGGTKLEIK
notes: human IgG1
Turning to B4, in test [1], binding was put at a Kd of 0.328 nM, the koff turned out to be 0.000182 s⁻¹ and the kon turned out to be 555000 M⁻¹ s⁻¹. In test [2], this molecule registered an equilibrium dissociation constant (Kd) of 0.48 nM, a koff of 0.000208 s⁻¹ and an association rate constant (kon) of 434000 M⁻¹ s⁻¹.

B5: WAZ460 (antibody, human IgG1, V domains shown)
VH: VQLVQSGAEVKKPGASVKVSCKASGYTFTNFYIHWVRQAPGQGLEWMGSIYPNYGITAYNQKFKDRVTMTVDTSTSTAYMELRSLRSDDTAVYYCARGYSYAMDYWGQGTTVTVSS
VL: DIQMTQSPSSVSASVGDRVTITCRASQGISGDLNWYQQKPGKAPKLLIYHTSQLHSDVPSRFSGSGSGTDFTLTISSLQPEDFATYYCQGYSKDLLTFGGGTKLEIK
notes: human IgG1
In test [1], B5 showed a Kd of 0.331 nM, a koff of 0.00016 s⁻¹ and a kon of 485000 M⁻¹ s⁻¹. In test [2], the affinity, expressed as Kd, was 0.515 nM; the dissociation rate constant (koff) turned out to be 0.000202 s⁻¹; the kon is 393000 M⁻¹ s⁻¹.

B6: RZL961 (antibody, human IgG1, V domains shown)
VH: VQLVQSGAEVKKPGASVKVSCKASGYTFTNFYIHWVRQAPGQGLEWMGSIYPQYGITAYNQKFKDRVTMTVDTSTSTAYMELRSLRSDDTAVYYCARGYSYAMDYWGQGTTVTVSS
VL: DIQMTQSPSSVSASVGDRVTITCSASQGISGDLNWYQQKPGKAPKLLIYHTSQLHSDVPSRFSGSGSGTDFTLTISSLQPEDFATYYCQGYSKDLLTFGGGTKLEIK
notes: human IgG1
Consider B6, for which, in test [1], the equilibrium dissociation constant (Kd) is 0.785 nM, the koff came out at 0.000436 s⁻¹ and the on-rate constant (kon) was found to be 555000 M⁻¹ s⁻¹. For the same molecule, in test [2], the Kd was 1.21 nM, the off-rate constant (koff) is 0.000536 s⁻¹ and the kon is 444000 M⁻¹ s⁻¹.

B7: YCF391 (antibody, human IgG1, V domains shown)
VH: VQLVQSGAEVKKPGASVKVSCKASGYTFTNFYIHWVRQAPGQGLEWMGSTYPNYGITAYNQKFKDRVTMTVDTSTSTAYMELRSLRSDDTAVYYCARGYSYAMDYWGQGTTVTVSS
VL: DIQMTQSPSSVSASVGDRVTITCSASQGISGDLNWYQQKPGKAPKLLIYHTSQLHSDVPSRFSGSGSGTDFTLTISSLQPEDFATYYCQGYSKDLLTFGGGTKLEIK
notes: human IgG1
Consider B7, for which, in test [1], the affinity, expressed as Kd, was 0.664 nM; the koff worked out at 0.00026 s⁻¹; the kon worked out at 391000 M⁻¹ s⁻¹. In test [2], this molecule registered an equilibrium dissociation constant (Kd) of 0.808 nM, a koff of 0.000336 s⁻¹ and an association rate constant (kon) of 416000 M⁻¹ s⁻¹.

B8: PEV057 (antibody, human IgG1, V domains shown)
VH: VQLVQSGAEVKKPGASVKVSCKASGYTFTNFYIHWVRQAPGQGLEWMGSIYPNYGITAYNQKFKDRVTMTVDTSTSTAYMELRSLRSDDTATYYCARGYSYAMDYWGQGTTVTVSS
VL: DIQMTQSPSSVSASVGDRVTITCSASQGISGDLNWYQQKPGKAPKLLIYHTSQLHSDVPSRFSGSGSGTDFTLTISSLQPEDFATYYCQGYSKDLLTFGGGTKLEIK
notes: human IgG1
For B8, in test [1], binding was characterised by a dissociation constant (Kd) of 0.327 nM, the off-rate constant (koff) is 0.00016 s⁻¹ and the kon is 489000 M⁻¹ s⁻¹. In test [2], this molecule had a Kd of 0.521 nM, a koff of 0.000189 s⁻¹ and a kon of 363000 M⁻¹ s⁻¹.

B9: MEK904 Fab (Fab, V domains shown)
VH: QVQLQESGPGLVKPSETLSLTCTVSGGSISSDYWGWIRQPPGKGLEWIGYISYRGSTNYNPSLKSRVTISVDTSRNQFSLKLSSVTAADTAVYYCARSAGVADFDFWGQGTLVTVSS
VL: DIQLTQSPSSVSASVGDRVTITCRASQGISSWLAWYQHKPGKAPKLLIYVASSLQSGVPSRFSGSGSGTDFTLTISSLQPEDFATYYCQQASSFPLTFGGGTKVEIK
notes: Fab
As for B9, in test [3], the Kd was 0.69 nM, the koff was 0.00015 s⁻¹ and the kon was found to be 210000 M⁻¹ s⁻¹.

B10: IOO459 Fab (Fab, V domains shown)
VH: QVQLQESGPGLVKPSETLSLTCTVSGGSISSDYWGWIRQPPGKGLEWIGYISSRGSTNYNPSLKRRVTISVDTSRNQFSLKLSSVTAADTAVYYCARSAGVADFDFWGQGTLVTVSS
VL: DIQMTQSPSSVSASVGDRVTITCRASQGISSWLAWYQHKPGKAPKLLIYVASSLQSGVPSRFSGSGSGTDFTLTISSLQPEDFATYYCQQANSAPLTFGGGTKVEIK
notes: Fab
As to B10, in test [3], binding was put at a Kd of 15.6 nM, the koff was determined as 0.0222 s⁻¹ and the kon was 1.42e+06 M⁻¹ s⁻¹.

B11: OWS965 Fab (Fab, V domains shown)
VH: QVQLQESGPGLVKPSETLSLTCTVSGGSISSDYWGWIRQPPGKGLEWIGYISYSGSTNYNPSLKSRVTISVDTSRNQFSLKLSSVTAADTAVYYCARSAGVADFDAWGQGTLVTVSS
VL: DIQLTQSPSSVSASVGDRVTITCRASQGISSWLAWYQHKPGKAPKLLIYVASSLQSGVPSRFSGSGSGTDFTLTISSLQPEDFATYYCQQASSFPLTFGGGTKVEIK
notes: Fab
In test [3], B11 registered a dissociation constant (Kd) of 2 nM, an off-rate constant (koff) of 0.00017 s⁻¹ and a kon of 87000 M⁻¹ s⁻¹.

B12: CLJ397 Fab (Fab, V domains shown)
VH: QVQLQESGPGLVKPSETLSLTCTVSGGSISSDYWGWIRQPPGKGLEWIGYISYRGSTNYNPSLKSRVTISVDTSRNQFSLKLSSVTAADTAVYYCARSAGVADFDAWGQGTLVTVSS
VL: DIQLTQSPSSVSASVGDRVTITCRASQGISSWLAWYQHKPGKAPKLLIYVASSLQSGVPSRFSGSGSGTDFTLTISSLQPEDFATYYCQQASSFPLTFGGGTKVEIK
notes: Fab
In test [3], B12 returned a Kd of 0.55 nM, a koff of 0.00015 s⁻¹ and a kon of 270000 M⁻¹ s⁻¹.

B13: IFQ920 Fab (Fab, V domains shown)
VH: QVQLQESGPGLVKPSETLSLTCTVSGGSISSDFWGWIRQPPGKGLEWIGYISSRGSTNYNPSLKRRVTISVDTSRNQFSLKLSSVTAADTAVYYCARSAGVADFDFWGQGTLVTVSS
VL: DIQMTQSPSSVSASVGDRVTITCRASQGISSWLAWYQHKPGKAPKLLIYVASSLQSGVPSRFSGSGSGTDFTLTISSLQPEDFATYYCQQANSAPLTFGGGTKVEIK
notes: Fab
In the case of B13, in test [3], the affinity, expressed as Kd, was 8.28 nM; the koff came to 0.00233 s⁻¹; the kon turned out to be 281000 M⁻¹ s⁻¹.

B14: PAI969 Fab (Fab, V domains shown)
VH: QVQLQESGPGLVKPSETLSLTCTVSGGSISSDYWGWIRQPPGKGLEWIGYISSSGSTNYNPSLKSRVTISVDTSRNQFSLKLSSVTAADTAVYYCARSAGVADFDAWGQGTLVTVSS
VL: DIQLTQSPSSVSASVGDRVTITCRASQGISSWLAWYQHKPGKAPKLLIYVASSLQSGVPSRFSGSGSGTDFTLTISSLQPEDFATYYCQQASSFPLTFGGGTKVEIK
notes: Fab
In test [3], B14 returned a Kd of 0.98 nM, a koff of 0.00014 s⁻¹ and a kon of 140000 M⁻¹ s⁻¹.

B15: JSQ278 Fab (Fab, V domains shown)
VH: QVQLQESGPGLVKPSETLSLTCTVSGGSISSDYWGWIRQPPGKGLEWIGYISYRGSTNYNPSLKSRVTISVDTSRNQFSLKLSSVTAADTAVYYCARSAGVTDFDAWGQGTLVTVSS
VL: DIQLTQSPSSVSASVGDRVTITCRASQGISSWLAWYQHKPGKAPKLLIYVASSLQSGVPSRFSGSGSGTDFTLTISSLQPEDFATYYCQQASSFPLTFGGGTKVEIK
notes: Fab
Take B15: in test [3], the dissociation constant Kd came to 0.56 nM, the koff was found to be 0.00015 s⁻¹ and the on-rate constant (kon) amounted to 270000 M⁻¹ s⁻¹.

B16: EJT070 Fab (Fab, V domains shown)
VH: QVQLQESGPGLVKPSETLSLTCTVSGGSISSDYWGWIRQPPGKGLEWIGYISYSGSTNYNPSLKSRVTISVDTSRNQFSLKLSSVTAADTAVYYCARSAGVADFDFWGQGTLVTVSS
VL: DIQLTQSPSSVSASVGDRVTITCRASQGISSWLAWYQHKPGKAPKLLIYVASSLQSGVPSRFSGSGSGTDFTLTISSLQPEDFATYYCQQASSFPLTFGGGTKVEIK
notes: Fab
As for B16, in test [3], the affinity, expressed as Kd, was 0.82 nM; the koff is 0.0002 s⁻¹; the kon worked out at 250000 M⁻¹ s⁻¹.
